The values below come from patent US8613931B2, “Compounds for treating beta-amyloidoses” (Affiris AG, priority 2008, dated 2013).

B1: p4381 (peptide)
peptide: SEFKHGC
B2: p4383 (peptide)
peptide: TSVFRHC
B3: p4384 (peptide)
peptide: TPFRHTC
B4: p4380 (peptide)
peptide: QDFRHYC
B5: p4382 (peptide)
peptide: TSFRHGC
B6: p4803 (peptide)
peptide: HEFRHC
B7: p4802 (peptide)
peptide: CHEFRH
B8: p4709 (peptide)
peptide: EDWFFWHC
B9: p4724 (peptide)
peptide: QELKRYYC
B10: p4754 (peptide)
peptide: TSTEMWHC
B11: p4713 (peptide)
peptide: QPNLFYHC
B12: p4719 (peptide)
peptide: HEPLFSHC
B13: p4733 (peptide)
peptide: TPLMFWHC
B14: p4701 (peptide)
peptide: NELRHSTC
B15: p4743 (peptide)
peptide: SNSEFRRC
B16: p4734 (peptide)
peptide: LQFKHSTC
B17: p4717 (peptide)
peptide: APMYFPHC
B18: p4718 (peptide)
peptide: TYFSHSLC
B19: p4737 (peptide)
peptide: AEFSHWHC
B20: p4736 (peptide)
peptide: TGLMFKHC
B21: p4755 (peptide)
peptide: SQSYFKHC
B22: p4744 (peptide)
peptide: SELRHSTC
B23: p4748 (peptide)
peptide: YEFRHAQC
B24: p4731 (peptide)
peptide: MLPFRHGC
B25: p4751 (peptide)
peptide: AYFPHTSC
B26: p4752 (peptide)
peptide: NSSELRHC
B27: p4723 (peptide)
peptide: ATPLFRHC
B28: p4745 (peptide)
peptide: THMEFRRC
B29: p4704 (peptide)
peptide: VELRHSRC
B30: p4714 (peptide)
peptide: ELFKHHLC
B31: p4739 (peptide)
peptide: AEFMHSVC
B32: p4705 (peptide)
peptide: YSMRHDAC
B33: p4710 (peptide)
peptide: SAGSFRHC
B34: p4749 (peptide)
peptide: SNFRHSVC
B35: p4706 (peptide)
peptide: AANYFPRC
B36: p4732 (peptide)
peptide: SAMRHSLC
B37: p4726 (peptide)
peptide: LHIPFRHC
B38: p4712 (peptide)
peptide: SEFSHSSC
B39: p4727 (peptide)
peptide: NELFKHFC
B40: p4729 (peptide)
peptide: SQYFPRPC
B41: p4721 (peptide)
peptide: SLMRHSSC
B42: p4711 (peptide)
peptide: QVMRHHAC
B43: p4735 (peptide)
peptide: ATFRHSTC
B44: p4703 (peptide)
peptide: DTYFPRSC
B45: p4716 (peptide)
peptide: ATFRHSPC
B46: p4747 (peptide)
peptide: QLFKHSPC
B47: p4702 (peptide)
peptide: GEMRHQPC
B48: p4708 (peptide)
peptide: SSSFFPRC
B49: p4742 (peptide)
peptide: IGFRHDSC
B50: p4750 (peptide)
peptide: APIQFRHC
B51: p4722 (peptide)
peptide: EFLRHTLC

The target in the first test is monoclonal antibody MV-001. The test is described as follows: inhibition ELISA; competitor: coated original epitope p4371.
Details: not given
(ELISA stands for enzyme-linked immunosorbent assay.)
B1 showed an Inhibition Capacity (code (weaker than original epitope)) of 1.
B2: the Inhibition Capacity (code (weaker than original epitope)) came out at 1.
B3 came in with an Inhibition Capacity (code (weaker than original epitope)) of 1.
The same measure, in the same setting: then B4, with 1.
The molecule B5 had an Inhibition Capacity (code (weaker than original epitope)) of 1.

The same test, now with this note: scale: code.
For B6, the Inhibition Capacity came to 2.
In turn, B7 came in with an Inhibition Capacity of 2.

The next test concerns the target monoclonal antibody MV-001. As to the kind of experiment: ELISA, peptide-BSA coated, MV-001.
Details: not given
As to B8, the Binding Capacity (code (weak binding, OD halfmax 1:<4000)) was 1.
For the molecule B9, the Binding Capacity (code (weak binding, OD halfmax 1:<4000)) was 1.
B10 yielded a Binding Capacity (code (weak binding, OD halfmax 1:<4000)) of 1.
As for B11, the Binding Capacity (code (weak binding, OD halfmax 1:<4000)) was determined as 1.
Still for that read-out and setting: then B12, with 1.
In turn, B13 yielded a Binding Capacity (code (weak binding, OD halfmax 1:<4000)) of 1.

The test is the same for the next values; noted with them: scale: code.
B14 came in with a Binding Capacity of 3.
B1 came in with a Binding Capacity of 3.
For the molecule B15, the Binding Capacity was determined as 3.
The molecule B16 gave a Binding Capacity of 2.
In the case of B17, the Binding Capacity worked out at 2.
In the case of B18, the Binding Capacity was determined as 2.
Regarding B19, the Binding Capacity amounted to 2.
B20 showed a Binding Capacity of 2.
As to B2, the Binding Capacity was determined as 3.
Take B3: the Binding Capacity was 2.
Still for that read-out and setting: then B21, with 3; and B4, with 2; and B22, with 3.
Regarding B23, the Binding Capacity amounted to 3.
The molecule B24 came in with a Binding Capacity of 2.
In the case of B25, the Binding Capacity amounted to 2.
Same read-out and setting: then B26, with 3; and B27, with 3.
Consider B28, for which the Binding Capacity came out at 3.
B29 showed a Binding Capacity of 2.
As to B30, the Binding Capacity came out at 3.
Molecule B31 showed a Binding Capacity of 2.
Turning to B32, the Binding Capacity was 2.
The same measure, in the same setting: then B33, with 3; and B34, with 3; and B35, with 2.
In turn, B36 came in with a Binding Capacity of 2.
In turn, B37 had a Binding Capacity of 3.
With B38, the Binding Capacity came to 3.
The molecule B39 registered a Binding Capacity of 2.
Turning to B40, the Binding Capacity turned out to be 2.
On to B41, for which the Binding Capacity was found to be 2.
Turning to B42, the Binding Capacity was 2.
For the molecule B43, the Binding Capacity turned out to be 2.
The molecule B44 returned a Binding Capacity of 2.
The molecule B45 yielded a Binding Capacity of 2.
The same measure, in the same setting: then B46, with 3.
The molecule B47 returned a Binding Capacity of 3.
The molecule B48 gave a Binding Capacity of 2.
Take B49: the Binding Capacity turned out to be 2.
Same read-out and setting: then B50, with 3; and B51, with 3.
Consider B6, for which the Binding Capacity stood at 3.
Consider B7, for which the Binding Capacity was found to be 3.
Same read-out and setting: then B5, with 2.

In the next test the test system is monoclonal antibody MV-001. The test is described as follows: In vitro binding assay (ELISA), parental antibody MV-001. Particulars: peptide-BSA on ELISA plate; OD halfmax, dilution factor 1:X of parental AB MV-001. Set-up: species or system C57/Bl6 mice. The method, then:
1. In vitro binding assay (ELISA)
Peptides derived from Phage Display as well as variants thereof were coupled to BSA and bound to ELISA plates (1 μM; as indicated in the respective figures) and subsequently incubated with the monoclonal antibody that was used for the screening procedure to analyse binding capacity of identified peptides.
QPNLFYHC [p4713]: the “Binding Capacity” value is 1 (weak binding :<4000).
As for NELRHSTC [p4701], the “Binding Capacity” value is recorded as 3 (strong binding :>20000).
Regarding SNFRHSVC [p4749], the “Binding Capacity” value was 3 (strong binding :>20000).
Regarding SELRHSTC [p4744], the “Binding Capacity” value is reported as 3 (strong binding :>20000).
As to NSSELRHC [p4752], the “Binding Capacity” value is 3 (strong binding :>20000).
The same measure, in the same setting: then SNSEFRRC [p4743], with 3 (strong binding :>20000); and TPLMFWHC [p4733], with 1 (weak binding :<4000); and EFLRHTLC [p4722], with 3 (strong binding :>20000).
With QLFKHSPC [p4747], the “Binding Capacity” value was 3 (strong binding :>20000).
Take ATPLFRHC [p4723]: the “Binding Capacity” value is on record as 3 (strong binding :>20000).
For QELKRYYC [p4724], the “Binding Capacity” value is 1 (weak binding :<4000).
The same measure, in the same setting: then SQSYFKHC [p4755], with 3 (strong binding :>20000).
Consider HEPLFSHC [p4719], for which the “Binding Capacity” value is listed as 1 (weak binding :<4000).
With SEFSHSSC [p4712], the “Binding Capacity” value is given as 3 (strong binding :>20000).
Turning to SAGSFRHC [p4710], the “Binding Capacity” value was 3 (strong binding :>20000).
Take LHIPFRHC [p4726]: the “Binding Capacity” value was 3 (strong binding :>20000).
Still for that read-out and setting: then APIQFRHC [p4750], with 3 (strong binding :>20000); and EDWFFWHC [p4709], with 1 (weak binding :<4000).
Still for that read-out and setting: then THMEFRRC [p4745], with 3 (strong binding :>20000); and GEMRHQPC [p4702], with 3 (strong binding :>20000).
Consider TSTEMWHC [p4754], for which the “Binding Capacity” value is 1 (weak binding :<4000).
